# Test results published in US20240118272A1.
# How the values were obtained:
# [1] = molecular target: CD9(ECD)-ALP conjugate (human; bovine); test: HI-1000 capture immunoassay; primary calibrator C1, 1.52 ng/mL; mean of 3
# [2] = molecular target: CD9(FL)-ALP conjugate (human; bovine); test: HI-1000 capture immunoassay; calibrator C5, 30 ng/mL; run 3
# [3] = molecular target: CD9(FL)-ALP conjugate (human; bovine); test: HI-1000 capture immunoassay; calibrator C4, 15 ng/mL; run 1
# [4] = molecular target: CD9(ECD)-ALP conjugate (human; bovine); test: HI-1000 capture immunoassay; secondary calibrator C5; mean of 3 aliquots
# [5] = molecular target: CD9(ECD)-ALP conjugate (human; bovine); test: HI-1000 capture immunoassay; primary calibrator C5, 159.87 ng/mL; run 2
# [6] = molecular target: CD9(FL)-ALP conjugate (human; bovine); test: HI-1000 capture immunoassay; calibrator C5, 30 ng/mL; run 2
# [7] = molecular target: CD9(ECD)-ALP conjugate (human; bovine); test: HI-1000 capture immunoassay; primary calibrator C1, 1.52 ng/mL; run 3
# [8] = molecular target: CD9(ECD)-ALP conjugate (human; bovine); test: HI-1000 capture immunoassay; secondary calibrator C3, 14.32 U/L; run 2
# [9] = molecular target: CD9(FL)-ALP conjugate (human; bovine); test: HI-1000 capture immunoassay; calibrator C1, 1.83 mU/L; run 1
# [10] = molecular target: CD9(FL)-ALP conjugate (human; bovine); test: HI-1000 capture immunoassay; calibrator C1, 1.83 mU/L; mean of 3
# [11] = molecular target: CD9(FL)-ALP conjugate (human; bovine); test: HI-1000 capture immunoassay; calibrator C5, 43.86 mU/L; run 1
# [12] = molecular target: CD9(FL)-ALP conjugate (human; bovine); test: HI-1000 capture immunoassay; calibrator C3, 7.4 ng/mL; run 1
# [13] = molecular target: CD9(ECD)-ALP conjugate (human; bovine); test: HI-1000 capture immunoassay; secondary calibrator C1; mean of 3 aliquots
# [14] = molecular target: CD9(ECD)-ALP conjugate (human; bovine); test: HI-1000 capture immunoassay; secondary calibrator C4, 129.62 U/L; mean of 3
# [15] = molecular target: CD9(FL)-ALP conjugate (human; bovine); test: HI-1000 capture immunoassay; calibrator C2, 5.48 mU/L; mean of 3
# [16] = molecular target: CD9(FL)-ALP conjugate (human; bovine); test: HI-1000 capture immunoassay; calibrator C1, 1.83 mU/L; run 2
# [17] = molecular target: CD9(ECD)-ALP conjugate (human; bovine); test: HI-1000 capture immunoassay; secondary calibrator C1, 1.02 U/L; mean of 3
# [18] = molecular target: CD9(FL)-ALP conjugate (human; bovine); test: HI-1000 capture immunoassay; calibrator C4, 21.93 mU/L; run 3
# [19] = molecular target: CD9(FL)-ALP conjugate (human; bovine); test: HI-1000 capture immunoassay; calibrator C2, 5.48 mU/L; run 1
# [20] = molecular target: CD9(FL)-ALP conjugate (human; bovine); test: HI-1000 capture immunoassay; calibrator C2, 3.7 ng/mL; mean of 3
# [21] = molecular target: CD9(FL)-ALP conjugate (human; bovine); test: HI-1000 capture immunoassay; calibrator C2, 5.48 mU/L; run 2
# [22] = molecular target: CD9(ECD)-ALP conjugate (human; bovine); test: HI-1000 capture immunoassay; secondary calibrator C4, 129.62 U/L; run 2
# [23] = molecular target: CD9(ECD)-ALP conjugate (human; bovine); test: HI-1000 capture immunoassay; primary calibrator C4, 50.05 ng/mL; run 1
# [24] = molecular target: CD9(ECD)-ALP conjugate (human; bovine); test: HI-1000 capture immunoassay; primary calibrator C5, 159.87 ng/mL; run 3
# [25] = molecular target: CD9(ECD)-ALP conjugate (human; bovine); test: HI-1000 capture immunoassay; primary calibrator C3, 15.65 ng/mL; mean of 3
# [26] = molecular target: CD9(FL)-ALP conjugate (human; bovine); test: HI-1000 capture immunoassay; calibrator C4, 15 ng/mL; mean of 3
# [27] = molecular target: CD9(ECD)-ALP conjugate (human; bovine); test: HI-1000 capture immunoassay; secondary calibrator C3, 14.32 U/L; run 1
# [28] = molecular target: CD9(FL)-ALP conjugate (human; bovine); test: HI-1000 capture immunoassay; calibrator C2, 3.7 ng/mL; run 1
# [29] = molecular target: CD9(FL)-ALP conjugate (human; bovine); test: HI-1000 capture immunoassay; calibrator C3, 7.4 ng/mL; mean of 3
# [30] = molecular target: CD9(ECD)-ALP conjugate (human; bovine); test: HI-1000 capture immunoassay; thawed aliquot 1 of secondary calibrator C2
# [31] = molecular target: CD9(ECD)-ALP conjugate (human; bovine); test: HI-1000 capture immunoassay; primary calibrator C2, 4.89 ng/mL; run 2
# [32] = molecular target: CD9(ECD)-ALP conjugate (human; bovine); test: HI-1000 capture immunoassay; secondary calibrator C3, 14.32 U/L; mean of 3
# [33] = molecular target: CD9(FL)-ALP conjugate (human; bovine); test: HI-1000 capture immunoassay; calibrator C5, 43.86 mU/L; mean of 3
# [34] = molecular target: CD9(ECD)-ALP conjugate (human; bovine); test: HI-1000 capture immunoassay; thawed aliquot 3 of secondary calibrator C2
# [35] = molecular target: CD9(ECD)-ALP conjugate (human; bovine); test: HI-1000 capture immunoassay; thawed aliquot 1 of secondary calibrator C1
# [36] = molecular target: CD9(FL)-ALP conjugate (human; bovine); test: HI-1000 capture immunoassay; calibrator C4, 15 ng/mL; run 2
# [37] = molecular target: CD9(ECD)-ALP conjugate (human; bovine); test: HI-1000 capture immunoassay; primary calibrator C4, 50.05 ng/mL; run 2
# [38] = molecular target: CD9(FL)-ALP conjugate (human; bovine); test: HI-1000 capture immunoassay; calibrator C3, 7.4 ng/mL; run 3
# [39] = molecular target: CD9(FL)-ALP conjugate (human; bovine); test: HI-1000 capture immunoassay; calibrator C3, 10.96 mU/L; run 3
# [40] = molecular target: CD9(ECD)-ALP conjugate (human; bovine); test: HI-1000 capture immunoassay; primary calibrator C3, 15.65 ng/mL; run 2
# Chain of CD9(FL)-ALP conjugate (human; bovine) (chain, as listed by the source, chain 1 of 2): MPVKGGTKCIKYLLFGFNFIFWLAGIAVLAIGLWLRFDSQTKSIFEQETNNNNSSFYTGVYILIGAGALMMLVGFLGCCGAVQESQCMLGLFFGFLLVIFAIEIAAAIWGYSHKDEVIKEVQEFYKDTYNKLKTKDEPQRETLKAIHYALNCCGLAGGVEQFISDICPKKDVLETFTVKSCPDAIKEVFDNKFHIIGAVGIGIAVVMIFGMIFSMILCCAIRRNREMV
# Chain of CD9(FL)-ALP conjugate (human; bovine) (P19111 20-506, chain 2 of 2): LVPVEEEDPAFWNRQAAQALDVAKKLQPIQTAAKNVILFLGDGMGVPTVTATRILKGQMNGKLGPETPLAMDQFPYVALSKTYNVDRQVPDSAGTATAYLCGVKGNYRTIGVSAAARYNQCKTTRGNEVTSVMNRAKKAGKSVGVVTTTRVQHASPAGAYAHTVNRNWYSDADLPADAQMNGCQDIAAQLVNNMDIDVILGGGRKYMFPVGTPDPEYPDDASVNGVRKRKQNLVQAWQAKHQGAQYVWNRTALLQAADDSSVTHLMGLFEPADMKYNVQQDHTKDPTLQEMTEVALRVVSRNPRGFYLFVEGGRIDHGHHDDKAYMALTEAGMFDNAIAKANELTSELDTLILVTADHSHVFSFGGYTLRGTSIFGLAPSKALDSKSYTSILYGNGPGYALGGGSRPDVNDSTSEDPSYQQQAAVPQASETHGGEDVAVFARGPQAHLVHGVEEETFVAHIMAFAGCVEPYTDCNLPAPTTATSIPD
# Chain of CD9(ECD)-ALP conjugate (human; bovine) (chain, as listed by the source, chain 1 of 2): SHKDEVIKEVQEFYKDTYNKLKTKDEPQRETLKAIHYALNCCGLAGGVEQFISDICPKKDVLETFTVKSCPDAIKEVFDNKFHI
# Chain of CD9(ECD)-ALP conjugate (human; bovine) (P19111 20-506, chain 2 of 2): as the sequence (P19111 20-506, chain 2 of 2) above
substance,measurement,setting,value
anti-CD9 antibody (Clone: H19a),Count value (av),[1],1100 count
same,Count value,[2],26100 count
same,Count value,[3],13000 count
same,Count value (av),[4],36300 count
same,Count value,[5],67600 count
same,Count value,[6],26900 count
same,Count value,[7],1120 count
same,Count value,[8],8240 count
same,Count value,[9],1580 count
same,Count value (av),[10],1540 count
same,Count value,[11],25800 count
same,Count value,[12],7040 count
same,Count value (av),[13],811 count
same,Count value (av),[14],70000 count
same,Count value (av),[15],3640 count
same,Count value,[16],1580 count
same,Count value (av),[17],941 count
same,Count value,[18],13300 count
same,Count value,[19],3630 count
same,Count value (av),[20],4280 count
same,Count value,[21],3520 count
same,Count value,[22],69400 count
same,Count value,[23],22400 count
same,Count value,[24],71600 count
same,Count value (av),[25],7190 count
same,Count value (av),[26],13500 count
same,Count value,[27],7980 count
same,Count value,[28],5360 count
same,Count value (av),[29],7020 count
same,Count value,[30],1560 count
same,Count value,[31],2520 count
same,Count value (av),[32],8090 count
same,Count value (av),[33],26400 count
same,Count value,[34],1520 count
same,Count value,[35],818 count
same,Count value,[36],13800 count
same,Count value,[37],21800 count
same,Count value,[38],7010 count
same,Count value,[39],6810 count
same,Count value,[40],7230 count
